Test results published in publication PMC10838023 (Molecular microbiology, 2023).

How the values were obtained:
SEC = target: the molecule itself; test: SEC
GfcR-StrepII = target: T1, GfcR-StrepII (Haloferax volcanii (expressed in H26), UniProt Q8NKQ2 1-210); test: EMSA
T1 sequence: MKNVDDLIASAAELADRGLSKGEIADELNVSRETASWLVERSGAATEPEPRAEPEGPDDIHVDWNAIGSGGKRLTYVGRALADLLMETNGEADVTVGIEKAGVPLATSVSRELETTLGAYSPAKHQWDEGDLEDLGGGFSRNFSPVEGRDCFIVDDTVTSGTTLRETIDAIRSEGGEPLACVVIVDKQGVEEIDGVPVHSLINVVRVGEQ

B1: GfcR-StrepII (glucose and fructose catabolism regulator GfcR of Haloferax volcanii with a C-terminal StrepII tag) (natural protein, UniProt Q8NKQ2 1-210, looked up)
chain: T1 sequence
stoichiometry N (SEC): 4

B2: PptfC (dsDNA)
DNA 1: GGACCTCGAAGACGTGCTGACGAACGAAACGCACGTCGAGGTGACGACCGTTCGGACCCGGTGACTCTCGGATGAACGTTTGTTAACGACCGAAACACGCAGTAACGTTCATATTCGAAAGGGTTTTTGAGCACATTTGCGTACGTTCTTTCGTAGGGGTGGCAACACTATG
DNA 2: CATAGTGTTGCCACCCCTACGAAAGAACGTACGCAAATGTGCTCAAAAACCCTTTCGAATATGAACGTTACTGCGTGTTTCGGTCGTTAACAAACGTTCATCCGAGAGTCACCGGGTCCGAACGGTCGTCACCTCGACGTGCGTTTCGTTCGTCAGCACGTCTTCGAGGTCC
binding result (GfcR-StrepII): binds
